One substance from article doi:10.1101/2020.08.31.274704 can be followed below.

Experiment [1] concerns the target prefusion stabilized trimeric SARS-CoV-2 spike protein ectodomain (S-ECD) (SARS-CoV-2) (UniProt P0DTC2). Briefly: ELISA. In general terms: ELISA stands for enzyme-linked immunosorbent assay.
For experiment [2] the target is unchanged. Briefly: BLI.

A word on the IC50: it is the concentration that inhibits the measured activity by half. A high value points to weaker potency. One may read the Kd as the free concentration of one partner at which half of the binding sites on the other are occupied at equilibrium, for simple one-to-one binding. Low readings indicate tighter binding, high ones weaker binding.

As to “ACE2 monomer, ACE2(1-615)-(GGGGS)5-HRV3C-eGFP-His8 (from UniProt Q9BYF1-1 18-615) (domain or fragment)”, the IC50 in experiment [1] was 27 nM. The Kd in experiment [2] is 25 nM.
